Assay results: patent publication US20130195859

Tested on: plasma derived alpha-1 antitrypsin (AAT)

Substance: recombinant active caspase-1
- caspase-1 activity (in arbitrary units), colorimetric substrate, in vitro with recombinant active caspase-1: AAT has a direct inhibitory effect on caspase-1 activity in vitro
